Assay results as given in the NTF2 design screens of Basanta et al. (2020).

Test: protease stability score; higher = more stable; yeast display proteolysis, trypsin and chymotrypsin;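 further: relative to predicted unfolded state with 0 unfolded-like and 1 meaning tenfold more protease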

Sequence	protease stability score
DEDHERSEIASKITYKIIETGNEDLFSHFADPNTRLHVNGVDSVGMEDVIKVHRKLWKDLGVDHFILHDQKVDVVDGVAEVRLDTRLRFNGREFETEVRFLVLKFNGRWWIRMIEFRVI	0.968
DEDHERTKLFSKLFLKWTHTGDWEKILENADPNVRMHIGDKNFHGMHEVWRFLHEHLEKLGADVHSLTDLKIEAYNGVVVVHVEGTENINGRDITSRLHLIVIKVDGRWIIREIRVTIS	1.29
DEDHESWERAYNIYLHALRTGDEERNHELADPRVLTHIDGVELHGREMMTRVMTELRIHEHRIHRVHIIGEKIDIDIEVRFRWNGKLVDTRTHEHRLKVDGKWLLTRFEVR	0.76
DEDHEVFKRINDLFHESLETGDERVLERLMDPNTRIEYGDKRVHGREELLRHMREMGIDHFNVEDTTVINGVAMLDVSIVVNGKVFKLEFYVNKVNGQWHLEHVEIREI	0.661
DEDHHEAEEWADLITHFLKTGDEKFLRDLADPNTRFKYGDFHIHGREQLTNFLRHYVERVKGIRSELKDKHVDVQGEKVRVELDLVLRIGDKTIHITIIIINLKVDGKWYVHTLVVEHR	1.18
DEDHHESHRALTELFKDLLTGDWKSSKELADPHARVDINGKEYHGREEMERFFKELWERLGIDHIDVKHIEIQGNKVISHLEIHVNGRTFNLIIIIDKVNGRWIIHSMKMDTE	0.968
DEDHHLVQLASEIVSKLIHTGDEEMIYHLADPHTRNDVNGKVFHGRDEMLKYLHDRWRHFGVERINHIVHHIRVVDGRADIDGRLHVGDKDFTVHIHMEKVNGRWVIKEIRIK	0.68
DEDHKEVKHILRMWMENLYTGDEELNNRLLDPNARWEVNGRDIHGRELILKVLSNEYTEWRMKHIKIDHVENVNGQVHVDITIKYDINGQEINLRTHIRIYIINGKIHEIHISIH	0.576
DEDHKFAVEILRRLMEIWFTGNEEELKHLADPDYRLRVRINGKEITRHGMEQSREQIKRWIDRIDHYEIRIRHLEWQGDKSHSHTELHMRFDGVIKKFETRIIVIVIDGKVSEIIIEIN	1.61
DEDHKHAERFVEEFITLILTGNEELLKRLADPNVKIDFDGVEIIGREILNSHTKKQINRIDHIRIHIRHIHVQGDKAIIDLEVRIIVDGKEDRNETHLFLTKVNGRWILTSWKVG	1.6
DEDHKHSEEAIKRWIDTMVTGDERLFNHLADPHTKIEFNGVDNHGMEEAVRVMIFIFRLLGVDHIRIEFRERHVFNGKVVWHFHLERRIGDKTEHINTHILMEKVDGRWLIQSERYE	1.56
DEDHKHWKKLTEILFHVFRTGDWHLLEKLADPNVRTVVNGVEIHGREHLADIMWLHKETLGIDHMELRSIEYQGEKFIIHAEIDVNGRKVDVHIRSVIIDGRMHSISIEVHHH	1.99
DEDHKIIEKLFRHWLELLLTGDEEEIEKQMDPHARIIINGRHTHGRDDIRRLLEEIRIRHLDIERLEIRIYGNKAVALSETRVEVRIGDKEFHVDYRIILIIEKVDGRWVKRSLELIVV	1.71
DEDHKIVEHMVKLIIDSMHTGDEHSIRELFDPNTRMDVNGVDFHGWEHYHKRIEDLRKRADHVTIYIRDMKVINGQAHIHTEMRIDIGDKHLRHRVIIIVLKVDGRWVIEQVIFL	2.29
DEDHKLAEHFIRLLSEKIETGDEDSYKEMVDPNVRIEIGDKEYHGRDEATRVMKEIRERVKNMRIEIHEIHIQGDKVHVRRIDKVGDKEIEKHLIVLKFDGRWVIERERVH	1.19
DEDHKLLEKFYRIWVEMFKTGDEERWKHLADPDARSDINGVDFIGRDTVSKIMESFLRKMGFDHMEIRRFDFQGEKIKSDVVLDFNGRDVRTEIHIIVVDGRIKEERFRVT	0.192
DEDHKQSKHAFELFMHLLRTGDEEVLRRMADPNARIVVNGKDDIGREVFLRVLLEFGVDHMQIRDWELDENHIILVSELRIGEKTHTLDVHFKKINGRWIVEVNNLE	1.25
DEDHKRVREMTDILIELLVTGNEDLLLKLMDPHARERIGDWHSHGRESFVKLLQDLLERIKNVRIEIKDMRIRIYNGVAHSHIDGNNIYNGREIKALWILIIEKINGRWIVHSIELETE	1.45
DEDHKSAEDMLRLLLETVITGDETLLEKLADPHVRLRVGDKKFIGMEELLRLLDEEKKRLGYTRVDLVLHHREVQGDKLHLETELRVNGRTYQTHWIALKINGRWIIHEVSIR	2.25
DEDHKWAKFMFEVFKKVVETGDEEVFKHLADPNVRMEVGDKEFIGREEFRRFLNELRIHHQRDTHIEIRSVGDKIEVLIDGETTIEVGDKTRDHRMRVILFTMKVDGRWLIRSIRFEIH	1.56
DEDHQASRLVFELLDRAWKTGDEQILNEMMDPHVKVVFNGVELHGRSALERLMKELRIDTLHLDHTEIYDGRMETEGKVDGEYNGRTLHHITKIRFEKIDGRWVEREVVIK	0.815
DEDHQMATIAFHLLIESLLTGDEHTIQEMFDPRVKVNINGVELIGWEALVEHLRRIDHHSIHQWTFRDVRFYDGVLNVLGEVDFEVVFDGRRVSHRVRFHLIIFKIDGKWMTRTVEVK	2.23
DEDHRDAIFILRLFLHATETGDEDSLETLMDPHVKLEINGVRIHGRETTYILMRHWRFRIEHLEIRNFDVFNGRLELIGHRHTTINIDGREERHTVRLEVHIWKINGQWLVQHIHIH	2.91
DEDHRDAQRLVEHWINVFETGDEEQIEKLLDPNARVIVDGRHVHGRSSVLKFIVDLVREMRVELRLKDLSVVDGRVHVKMEMRIEINGRREETEVDINAEKVDGVWRFKEMFVI	2.47
DEDHRDMEEFMRIFIDSLKTGDEESLARMLDPNARTKVNGVDFHGRESALEVLRRLWEEFGVDHMELKSREVEVQGNKVHIHLVVTLIQGDKHIHVRYHINTIKVDGRWLLHEINVEIR	1.36

Sequence	protease stability score
DEDHRDVERLFQFVEELLHTGDERVNEELADPNVRIDVNGVERHGREDMVTWLRTIEERYKNATFHTHHIRIQGNKLKVNGRIRQGDWSSDVDILYVKINGRWFIRELKVK	1.49
DEDHRHARNIFQKWTHDLATGNFHSLNTLFDPHARFEVGDKDIIGRHEWQEHLRHLRLHEVKFTWRRFRIFDGRVEMRGDLRVDGTIDGQHDDETIHTHMIILKVNGRWHIDSMHVH	1.08
DEDHRIAHEIFRLLFHLLSTGDEDIFNQMADPHVQSIVGDKEFHGREQLRKAWHEIRVHRSDIHSVEIRVINGRVRNDMRIRYDGEINGKKIDTDIHMEVVIDKYNGRWIIRSVSIEII	2.16
DEDHRLAVHISKMFEHAESTGDFEISERMADPHTKIDIGDKHYHGMEEWVRFLRELRLSTDHIEIKDSKRYNGRLIIHSRTRITLNVNGKTIDFEIDVTFIFEKVNGRWKLHMYRFD	0.944
DEDHRLWEEMIRILHDALRTGDEDMLEHLMDPDTRLHVGDKNVHGRRDMKYFWEILGVDRVELVIRSFRLIDGKAEIDGESRFNGVTRRVRLIHNKINGRWLTESIHIH	0.745
DEDHRWLKELMELFSRALSTGNEKELTELMDPNTRIEVDGVDLIGREDWRHFLERVDHLEAKRVEIKRVKVYDGKIEMDTTEDGVIEINGQNVRTIVHSQVFVLKVDGRWIFRKMSRR	1.42
DEDKDKVRRWAEDFIRDLTTGDFDSLRREADPNYRIEVNGQDHHGMEFHLWVLDHLGLDNIHTELRDSEVQGDKAHNDIRITYNGKEMTVILIVDKVNGKWFVRKIRIE	1.72
DEDKDLIDLHFEIYQQVVLTGDFRKFRRLFDPNTRWEIGDKEFHGREHLSKLHKDLLEHLGVRVREVELHNFHIQGDKIHLDTRIHVHAENHHMIHITEIISTKIDGRWIITELRLR	0.826
DEDKDLMHEVTRLLHRNLNTGDEHSLERLFDPHYRYHQGEFHSVGREEWYEWLRRYGVDHVHVNLTESISVGDKMKLEGKLELRYDGRRFEHDLHLIALKIDGRWIFTSSHVR	0.221
DEDKDMKDTMLKDLLHTLETGDEDIWAKLIDPNTQVDIGDKRIHGREKIVEHFRRADVLTIHHVRLRQFHHFDGRAHMNVQFDGTVQINGVEVRFDVTVKLVFLKVNGRWFLHSEERE	1.15
DEDKDVTKRLFELLRQADETGDEHTMTRLLDPHAQLVVNGRRVHGMEFVWELLLRLRHRYDHSHWRLHDARTQGEYMHLDVRLHLNIDGKRVNIEMHLIILKIDGVWFVHSVEIH	0.45
DEDKEAARHFSKILIHLMLTGDEEMIERLLDPDVKVHLVINGVHIERHGREEMIKMHRELLEQIRWKDFILRDIKVVNGVAHVDGELRREQGDKHETVRVRIDIVVINGRIRQVHIEFR	0.404
DEDKEAKEESWRIYLHSLLTGDEKEIERLVDPNARLDINGQEHHGRHMVLTHVLRLMVRADHLDDIEIHHMEVIDGQLHSDVILKITINGRDVHIREHYLLRKVNGRWYFKSIEVR	1.7
DEDKEALHEILRLIAEAWNTGDEHTLRRLFDPDVRVEVGDKEFHGREEVDRWFRHLRIEHVETRLHDTRSQGDKLLSDTRLHFVGEVNGVHFNRSTETDLFVHKVDGRWRIESIRVR	1.03
DEDKEDLDDWFKRWEEALRTGDEKTLLRLMDPDTRLIFENHERHGMEEIFDMLHKHLNRVDHIHDFILRRDDSQGDKVRYDGQEDGIVDGVRDILKVIIYMIKIDGRWLMEELEFH	1.26
DEDKEDTDKMIEILIRVARTGDEDSLLHMLDPNVRIVVNGREEHGRDVAHRFLKEIRIHDMEVKRVEIIGNKVKIDGRVDGDFNGVRHKTETEIITEKINGKWVIRSIIFR	2.1
DEDKEEAMKFLRLWFHSVLTGDEDELTRLLDPNTRIVIDGRTFVGREEMVFVMREMRVHHFHIKDVHLVNGVAHIDTHSDIEFNGRRYRTDTEISVLKVDGKWILKSVKIR	2.42
DEDKEEAVRIIHEWSHAVFTGDFERELRLADPNVRLIINGRDFHGWHSLRELLNHMRLKTHHTDVKRSRSQGDFVEIDGLFNFTIHFNGRDLNVITDVKVVINKIDGRWKIESVHYE	1.18
DEDKEEIMEAIKEFLTNLQTGDEERLFELFDPHVRLKVNGQLYHGREDLVRHLSELGVKHWRLRSVEIQGEKAIMHGLVNVDGRSVRMIIEAEKVNGRWRMRHFESH	1.84
DEDKEESEKFFRDMHRAAETGDWREHLRLMDPHVRLVVGEYQHHGRETFEEILTEWFERVDHQELVIRHVRVYDGVADLDGEIIYHYGDKIIFVRYTIHVRKVDGRWRIKHIRIE	0.476
DEDKEFMERLARMFWHSILTGDEHRISNLADPNMKLEVDGQRFHGREEMERASKERWERLGVDHIHIEDLRVVGDKVTIHTHVDINGKEWRVDIEVKIINGKIKEIRIERHEL	1.09
DEDKEHIDRSLEELRRSWKTGNEEDVLRLADPHVKMIYNGRHHIGRENFEEALKILLERVDHWEDFRITDRHRQGDKVELDVESEGLVNGVTKRTEMIFIILKIDGRWLLHSLEIR	0.724
DEDKEIADNFLKQLLRDIQTGDEDSFIERLDPNARLQVGDKHVHGMDEVLRTRREWVKLMGADHIHHVEVNHVHIQGDKVHMDVEVDVEFNGKRRRLKSHLILTKVDGQWIITMEIIK	1.08
DEDKEIAEHNLRLLSHSRLTGDEESMHKLMDPNAKIDFNGREIHGMEWIEWLKNQLRLKHVHTEFKDSRIINGRMEVDVNLRLHLSINGKEVDFIIDVELISQKVDGRWIVRSEIYR	0.375
DEDKEIAEKVAREVFHNFMTGDEDRHLELADPHTRLRVGEWENHGRDQVKRMFERQRRRFDHLERIEIKDVRIYDGVVHLHVEVHGVINGVSTTLEMRVYFVVVNGQLKRSSIHIH	0.373
